According to paper PMC4940744, “Iron(II) supramolecular helicates interfere with the HIV-1 Tat–TAR RNA interaction critical for viral replication”:

Target: T1, ADP-1 polypeptide (Tat RNA-binding region) (HIV-1, UniProt P04608 37-72)
T1 chain: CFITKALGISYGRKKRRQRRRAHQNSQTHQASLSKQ
Test: EMSA; no helicate; EMSA: 50 mM Tris-HCl pH 8.0, 50 mM KCl, 100 mM DTT, 0.05% Triton X-100, 10 min on ice; 15% PAA gel, 0.5x TB, 5 C
Details: label: 5'-32P; hairpin with 3-nt UCU bulge

GGCCAGAUCUGAGCCUGGGAGCUCUCUGGCC (structured_RNA) [TAR RNA]
binding result: binds
